Test system: MS2 coat protein
Assay: apparent KD of MS2 coat protein; designed switch direction (-1 OFF switch, 1 ON switch): -1; higher = weaker reporter binding
Outline: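 An oligonucleotide input, 200 uM small-molecule ligand, or no input was present during titration of SNAP-549-labelled MS2 coat protein, which was doubled from 0.7 or 1.5 nM to 3 µM. Designed RNA switches had been transcribed on Illumina chips by stalled E. coli RNA polymerase. Apparent KD per design is the median over clusters of curves fitted to normalised cluster fluorescence.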

[1] = Eterna round: R95, input ligand: microRNA oligo, concentration not stated
[2] = Eterna round: R95, input ligand: FMN 200 uM
[3] = Eterna round: R95, input ligand: none
[4] = input ligand: microRNA oligo, concentration not stated

Row | Sequence | apparent KD of MS2 coat protein [1] [nM] | apparent KD of MS2 coat protein [2] [nM] | apparent KD of MS2 coat protein [3] [nM] | apparent KD of MS2 coat protein (input ligand: FMN 200 uM) [nM] | apparent KD of MS2 coat protein (input ligand: none) [nM] | apparent KD of MS2 coat protein [4] [nM]
1 | GUGAAACAUGAGGAUCACCCAUGUGAGGAUAUGUUUUAGUACUGCUGACAGUACAUCUAUAGAAGGCACAAAGG [Mat - Mod of JL D69] (puzzle: Exclusion 1) | 25.4 | – | – | – | – | –
2 | AAGUACCGUCACGAUAGUGAUGGUACAACAGGCAAAUGUACAUGAGGAUCACCCAUGUCCUCUUUUGCUCGUCUUAU [Sensor 3 - 99] (puzzle: Sensor v3, turn-off variant 2) | 31 | 48.9 | 54.7 | – | – | –
3 | GUAUACAAGCAAAGAUCCCACAUGAGGAUCACCCAUGUGCUCGUCUUAUAAGGUACUGUGACGAAAGUCACGGUACC [Mat - Sensor, turn-off var - Eli Mod - D103] (Eterna round: R97, puzzle: Sensor, turn-off variant 1) | – | – | – | 42.9 | 43 | –
4 | UGAUCAAAUGUCAGGAUAUGCUAUUAGAAAUAAUAGCAGAAGGGACAUGAGGAUCACCCAUGUCUUGUCGAUUU [Magic-01] (puzzle: Brourd's mod of Exclusion 4) | 19.2 | 93.5 | 20.1 | – | – | –
5 | UACAUGAGGAUCACCCAUGUUUUGUCGUGUAUGGUAUUUAUCUAGGAUAUCAAUUUGUUUAUGUAUGAGAAGGAGAAUAUUAAU [JMF's solution 72] (Eterna round: R96, puzzle: Exclusion NG 3) | – | – | – | 32.9 | 35.6 | 28.4
6 | UGUUGUCGCGCAGGAUAUGAGGAUCACCCAUAUCAGGAUAUCGAAAGAGAAGUUCUGAGGAUCACCCAGAAGGGCGGGACAACU [pwkr exNG2 2xF5 2xFMN.33] (Eterna round: R96, puzzle: Exclusion NG 2) | – | – | – | 342 | 47.8 | 38
7 | AUUUAGUCAGGAUAUUAGUAGUAAAUAAAUAAAAUUAUUACUGAGAAGGGACAUGAGGAUCACCCAUGUGUCUA [Salish 062 v8] (Eterna round: R97, puzzle: Exclusion 4) | – | – | – | 44.4 | 24.9 | –
8 | UAUUAGCAAGCGAGAUCCCACAUGAGGAUCACCCAUGUGCUCGUCUGCUCCAGAAUUACUGGAGCAGCUCGUCUUAU [Winner reversed engineered 19] (Eterna round: R97, puzzle: Sensor, turn-off variant 1) | – | – | – | 21.7 | 22.4 | –
9 | CCGGCGUGGUGCGGUAGUUGUACGACAUGAGGAUCACCCAUGUAGGAUAUGCGCGUGGUCGCGCCGCAGAAGGACAACGUUUGG [Random, 20% A] (Eterna round: R96, puzzle: Exclusion NG 3) | – | – | – | 19.6 | 23.9 | 14.6
10 | AAAUAAUAGAUAAAAUAAAACAUGAGGAUCACCCAUGUGGGAUGCUGAGGGUGAUACAAGCUUUUUGCUCGUCUUAU (puzzle: Sensor v3, turn-off variant 1) | 57.7 | 210 | 182 | – | – | –
11 | AACCUGAGGCUUUGCUUUAGGUGAACAUGAGGAUCACCCAUGUAGGAUAUGGUAGGCUUUGCUUACCAGAAGGACAUAUUAAUU [JL ENG3 1.12] (Eterna round: R96, puzzle: Exclusion NG 3) | – | – | – | – | – | 30.6
12 | UCCCAGUGAGGAUAUACUUAUCGGGUCGGUUAGCGAGGAAAACUUGAGGAUCACCCAAGUAGAAGGCGCAACGU [Isinar] (Eterna round: R97, puzzle: Exclusion 2) | – | – | – | 35.1 | 29.6 | –
13 | AGGUGUAGAGGAUAUACAGUGUAUUACAUGAGGAUCACCCAUGUCCUUCAAUGGGUAUCAGUAGAAGGCUACACCA [Omei Ex5 C1] (Eterna round: R97, puzzle: Exclusion 5) | – | – | – | 1060 | 485 | –
14 | CCAUAUAACUGAGGAUAUCAUCGCAACUGACGUUGAGAAGGCAGACAUGAGGAUCACCCAUGUGAUUUCUCAAUAUUAUACAUC [Prohibition 80 - Jieux - Exclusion NG 1] (Eterna round: R96, puzzle: Exclusion NG 1) | – | – | – | 245 | 61.1 | 31.2
15 | AAGUAUAGAGGAUAUAGUGAGUACUACAUGAGGAUCACCCAUGUUCUUCAAAGCGUACUUCUAGAAGGCUGAUAAA [EX-5 Malc#16] (puzzle: Exclusion 5) | 251 | 381 | 208 | – | – | –
16 | AAGAAACAUGAGGAUCACCCAUGUGAGGAUAUGAUAAAGAAAAGAAAAGAAAGAAGAGUCAGAAGGCACAAAGG [salish99-ex1_r3_037] (puzzle: Exclusion 1) | 35.8 | 71.6 | 47.4 | – | – | –
17 | GGAUUACGAGGAUAUCGAUUUUAGUACAUGAGGAUCACCCAUGUUGUCCAGGUCUCGUUUCGAGAAGGCGUGAUUC [LRO-Ex5-06] (puzzle: Exclusion 5) | 58.4 | – | – | – | – | –
18 | CAUACUGAAGUUAGGAUAUUCGGCCGAAUACGGAUGGAGAAGGGACAUGAGGAUCACCCAUGUAGAUAGUAAAG [EX-4 Malc #14] (puzzle: Brourd's mod of Exclusion 4) | 21.7 | 26.1 | 27.6 | – | – | –
19 | AUUUAUGUUGAGGAUAUGCUAAAAUGUAUAGUUGCAGAAGGCGACACAUGAGGAUCACCCAUGUUCAUGGAAUU [LRO-Ex6-01] (puzzle: Exclusion 6) | 31.3 | – | – | – | – | –
20 | CUGCUCCGUGUAGGAUAUCCAUGCAACCAAUAUGGAGAAGGACAUGAGGAUCACCCAUGUAUGUUAUUAUCACGUGAAGCGUCC [Design 23] (Eterna round: R96, puzzle: Exclusion NG 1) | – | – | – | 28.6 | 31.2 | 24
21 | ACCUCACAUGAGGAUCACCCAUGUCAGGAUAUCUAUUAUUGCAGCAAUCCUGUCGCUGAGAGAAGGGACAUUAA [EX1 #27] (Eterna round: R97, puzzle: Exclusion 1) | – | – | – | 32.2 | 33 | –
22 | CCAUUAUAAGGAUAUACAUGAGGAUCACCCAUGUACAGGUUAGUUGUACGUACACCGAGUAGAAGGUAUAGAGG [Eternabot (L1) Solution 21] (Eterna round: R97, puzzle: Exclusion 3) | – | – | – | 62.5 | 63.4 | –
23 | ACCGUGAGGGUGAGGAUAUUCUGAGGGACGCCCUGGAAGAAGGUACAUGAGGAUCACCCAUGUGGCCUCAGACU [Eternabot (L2) Solution 99] (Eterna round: R97, puzzle: Brourd's mod of Exclusion 4) | – | – | – | 35.8 | 32.4 | –
24 | GGAUCGAGUGUGAGGAUAUGCUGGUCCUUGGAUCAGCAGAAGGCACAUGAGGAUCACCCAUGUGACUAAGAUCC [Eli bmx4 4.75] (Eterna round: R97, puzzle: Brourd's mod of Exclusion 4) | – | – | – | 322 | 29.8 | –
25 | UGUACUAACACGAUAGUGUUAGUACAAUAAGCUUGUGUUACAUGAGGAUCACCCAUGUCCUCAUAAGCUCGUCUUAU [Mat - Sensor v3 - Turn-off var 2 - D55] (puzzle: Sensor v3, turn-off variant 2) | 141 | 109 | 105 | – | – | –
